Results as given in article PMC10435562, “VEGF-B prevents excessive angiogenesis by inhibiting FGF2/FGFR1 pathway” (Signal Transduction and Targeted Therapy, 2023).

T1: FGFR1-Fc (Z03223, Genscript) (UniProt P11362 22-376)
T1 construct: fibroblast growth factor receptor 1 part of a bought Fc fusion; also called FGFR1 homodimer; FGFR1/FGFR1; source: bought: Genscript (Z03223)
T1 sequence (looked up): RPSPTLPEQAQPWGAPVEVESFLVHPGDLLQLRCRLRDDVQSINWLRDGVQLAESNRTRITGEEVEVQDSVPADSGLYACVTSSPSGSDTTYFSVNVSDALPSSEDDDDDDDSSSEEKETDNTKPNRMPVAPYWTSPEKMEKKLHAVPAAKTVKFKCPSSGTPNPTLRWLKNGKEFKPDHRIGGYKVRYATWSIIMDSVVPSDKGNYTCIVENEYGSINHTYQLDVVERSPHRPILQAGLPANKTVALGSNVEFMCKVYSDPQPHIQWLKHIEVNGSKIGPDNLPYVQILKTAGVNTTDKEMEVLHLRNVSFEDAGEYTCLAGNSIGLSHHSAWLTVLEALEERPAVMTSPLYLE

B1: Human VEGF-B167 (ligand, UniProt P49765-2 22-188, looked up)
chain: PVSQPDAPGHQRKVVSWIDVYTRATCQPREVVVPLTVELMGTVAKQLVPSCVTVQRCGGCCPDDGLECVPTGQHQVRMQILMIRYPSSQLGEMSLEEHSQCECRPKKKDSAVKPDSPRPLCPRCTQHHQRPDPRTCRCRCRRRSFLRCQGRGLELNPDTCRCRKLRR
notes: UniProt P49765 is printed for the VEGF-B167 peptides; Bought recombinant protein; source: bought: PeproTech (100-20B)
B2: VEGFR1 ECD-L-FGFR1 ECD (other)
chain: SKLKDPELSLKGTQHIMQAGQTLHLQCRGEAAHKWSLPEMVSKESERLSITKSACGRNGKQFCSTLTLNTAQANHTGFYSCKYLAVPTSKKKETESAIYIFISDTGRPFVEMYSEIPEIIHMTEGRELVIPCRVTSPNITVTLKKFPLDTLIPDGKRIIWDSRKGFIISNATYKEIGLLTCEATVNGHLYKTNYLTHRQTNTIIDVQISTPRPVKLLRGHTLVLNCTATTPLNTRVQMTWSYPDEKNKRASVRRRIDQSNSHANIFYSVLTIDKMQNKDKGLYTCRVRSGPSFKSVNTSVHIYDKAFITVKHRKQQVLETVAGKRSYRLSMKVKAFPSPEVVWLKDGLPATEKSARYLTRGYSLIIKDVTEEDAGNYTILLSIKQSNVFKNLTATLIVNVKPQIYEKAVSSFPDPALYPLGSRQILTCTAYGIPQPTIKWFWHPCNHNHSEARCDFCSNNEESFILDADSNMGNRIESITQRMAIIEGKNKMASTLVVADSRISGIYICIASNKVGTVGRNISFYITDVPNGFHVNLEKMPTEGEDLKLSCTVNKFLYRDVTWILLRTVNNRTMHYSISKQKMAITKEHSITLNLTIMNVSLQDSGTYACRARNVYTGEEILQKKEITIRDQEAPYLLRNLSDHTVAISSSTTLDCHANGVPEPQITWFKNNHKIQQEPGIILGPGSSTLFIERVTEEDEGVYHCKATNQKGSVESSAYLTVQGTSDKSNLERPSPTLPEQAQPWGAPVEVESFLVHPGDLLQLRCRLRDDVQSINWLRDGVQLAESNRTRITGEEVEVQDSVPADSGLYACVTSSPSGSDTTYFSVNVSDALPSSEDDDDDDDSSSEEKETDNTKPNRMPVAPYWTSPEKMEKKLHAVPAAKTVKFKCPSSGTPNPTLRWLKNGKEFKPDHRIGGYKVRYATWSIIMDSVVPSDKGNYTCIVENEYGSINHTYQLDVVERSPHRPILQAGLPANKTVALGSNVEFMCKVYSDPQPHIQWLKHIEVNGSKIGPDNLPYVQILKTAGVNTTDKEMEVLHLRNVSFEDAGEYTCLAGNSIGLSHHSAWLTVLEALEERPAVMTSPLYLE
B3: FGFR1 ECD-L-VEGFR1 ECD (other)
chain: RPSPTLPEQAQPWGAPVEVESFLVHPGDLLQLRCRLRDDVQSINWLRDGVQLAESNRTRITGEEVEVQDSVPADSGLYACVTSSPSGSDTTYFSVNVSDALPSSEDDDDDDDSSSEEKETDNTKPNRMPVAPYWTSPEKMEKKLHAVPAAKTVKFKCPSSGTPNPTLRWLKNGKEFKPDHRIGGYKVRYATWSIIMDSVVPSDKGNYTCIVENEYGSINHTYQLDVVERSPHRPILQAGLPANKTVALGSNVEFMCKVYSDPQPHIQWLKHIEVNGSKIGPDNLPYVQILKTAGVNTTDKEMEVLHLRNVSFEDAGEYTCLAGNSIGLSHHSAWLTVLEALEERPAVMTSPLYLESKLKDPELSLKGTQHIMQAGQTLHLQCRGEAAHKWSLPEMVSKESERLSITKSACGRNGKQFCSTLTLNTAQANHTGFYSCKYLAVPTSKKKETESAIYIFISDTGRPFVEMYSEIPEIIHMTEGRELVIPCRVTSPNITVTLKKFPLDTLIPDGKRIIWDSRKGFIISNATYKEIGLLTCEATVNGHLYKTNYLTHRQTNTIIDVQISTPRPVKLLRGHTLVLNCTATTPLNTRVQMTWSYPDEKNKRASVRRRIDQSNSHANIFYSVLTIDKMQNKDKGLYTCRVRSGPSFKSVNTSVHIYDKAFITVKHRKQQVLETVAGKRSYRLSMKVKAFPSPEVVWLKDGLPATEKSARYLTRGYSLIIKDVTEEDAGNYTILLSIKQSNVFKNLTATLIVNVKPQIYEKAVSSFPDPALYPLGSRQILTCTAYGIPQPTIKWFWHPCNHNHSEARCDFCSNNEESFILDADSNMGNRIESITQRMAIIEGKNKMASTLVVADSRISGIYICIASNKVGTVGRNISFYITDVPNGFHVNLEKMPTEGEDLKLSCTVNKFLYRDVTWILLRTVNNRTMHYSISKQKMAITKEHSITLNLTIMNVSLQDSGTYACRARNVYTGEEILQKKEITIRDQEAPYLLRNLSDHTVAISSSTTLDCHANGVPEPQITWFKNNHKIQQEPGIILGPGSSTLFIERVTEEDEGVYHCKATNQKGSVESSAYLTVQGTSDKSNLE
B4: FGFR1 DI (domain or fragment)
chain: PTLPEQAQPWGAPVEVESFLVHPGDLLQLRCRLRDDVQSINWLRDGVQLAESNRTRITGEEVEVQDSVPADSGLYACVTSSPSGSDTTYFSVNVS

Tests used:
[1] = target: B1; experiment: SPR; VEGF-B immobilised at 3820 RU on CM5 (the FGF2 surface is not described); FGFR1 DI (18.75-600 nM), DII (3.125-100 nM), DIII (12.5-400 nM), DII-III (25-800 nM) flowed at 10 µl/min
[2] = target: FGF2 (BFF-H4117, Acro Biosystems) (UniProt P09038); experiment: as above
[3] = target: T1, FGFR1-Fc (Z03223, Genscript); experiment: SPR; BIAcore 8000; VEGF-B, FGF2 or PlGF immobilised (5389, 1860, 4700 RU) on CM5 by amine coupling; FGFR1-Fc flowed at 12.5-400 nM, 30 µl/min; 1:1 binding model, KD = kd/ka; details: both partners purified
[4] = target: B1; experiment: SPR; VEGF-B immobilised at 3820 RU on CM5 (the VEGF-C surface is not described); heterodimer proteins flowed at 1.875-60 nM, 10 µl/min; details: both partners purified
[5] = target: T2, FGF2 (BFF-H4117, Acro Biosystems) (UniProt P09038 143-288); experiment: SPR; VEGF-B immobilised at 3820 RU on CM5 (the FGF2 surface is not described); FGFR1 DI (18.75-600 nM), DII (3.125-100 nM), DIII (12.5-400 nM), DII-III (25-800 nM) flowed at 10 µl/min; details: both partners purified
T2 construct: fibroblast growth factor 2 (basic FGF); Immobilised on the CM5 chip for SPR; also called basic FGF; fibroblast growth factor 2; source: bought: Acro Biosystems (BFF-H4117)
T2 sequence (P09038 143-288): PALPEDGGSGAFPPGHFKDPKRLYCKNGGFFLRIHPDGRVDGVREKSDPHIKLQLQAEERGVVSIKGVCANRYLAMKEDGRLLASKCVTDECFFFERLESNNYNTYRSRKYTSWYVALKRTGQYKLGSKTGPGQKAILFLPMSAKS

Chain of FGF2 (BFF-H4117, Acro Biosystems) (UniProt P09038) (P09038 143-288): as above

Molecule | Kd [1] [nM] | Kd [2] [nM] | further results
FGFR1 DII (domain or fragment) | 101 | 71 | 
FGFR1 DII-III (domain or fragment) | 49 | 63 | 
FGFR1 DIII (domain or fragment) | 64 | 43 | 
B1 |  |  | Kd [3]: 17 nM
B2 |  |  | Kd [4]: 1.4 nM
B3 |  |  | Kd [4]: 3.7 nM
B4 |  |  | Kd [5]: 245 nM; Kd ([1]; both partners purified): 532 nM
